According to US20190016794A1 (Boehringer Ingelheim, published 2019):

B1: Compound O (bispecific antibody)
chain 1: not shown
chain 2: EIVLTQSPATLSLSPGERATLSCRASQSVYSYLAWYQQKPGQAPRLLIYDASNRATGIPARFSGSGSGTDFTLTISSLEPEDFAVYYCQQRSNWPPFTFGPGTKVDIKGGGSGGGGQVQLVQSGAEVKKPGSSVKVSCKASGYTFTDQTIHWMRQAPGQGLEWIGYIYPRDDSPKYNENFKGKVTITADKSTSTAYMELSSLRSEDTAVYYCAIPDRSGYAWFIYWGQGTLVTVSSLGGGSGRTVAAPSVFIFPPSDEQLKSGTASVVCLLNNFYPREAKVQWKVDNALQSGNSQESVTEQDSKDSTYSLSSTLTLSKADYEKHKVYACEVTHQGLSSPVTKSFNRGEC
notes: GS linkers, isotype IgG1KO; counterpart of Compound E without YTE; also called Compound 0
B2: Compound E (bispecific antibody)
chain 1: DIQMTQSPSSLSASVGDRVTITCKASRDVAIAVAWYQQKPGKVPKLLIYWASTRHTGVPSRFSGSGSRTDFTLTISSLQPEDVADYFCHQYSSYPFTFGSGTKLEIKGGGSGGGGQVQLVESGGGVVQPGRSLRLSCAASGFIFSSYAMHWVRQAPGNGLEWVAFMSYDGSNKKYADSVKGRFTISRDNSKNTLYLQMNSLRAEDTAVYYCARDRGIAAGGNYYYYGMDVWGQGTTVTVSSLGGGSGASTKGPSVFPLAPSSKSTSGGTAALGCLVKDYFPEPVTVSWNSGALTSGVHTFPAVLQSSGLYSLSSVVTVPSSSLGTQTYICNVNHKPSNTKVDKRVEPKSCDKTHTCPPCPAPEAAGGPSVFLFPPKPKDTLYITREPEVTCVVVDVSHEDPEVKFNWYVDGVEVHNAKTKPREEQYNSTYRVVSVLTVLHQDWLNGKEYKCKVSNKALPAPIEKTISKAKGQPREPQVYTLPPSREEMTKNQVSLTCLVKGFYPSDIAVEWESNGQPENNYKTTPPVLDSDGSFFLYSKLTVDKSRWQQGNVFSCSVMHEALHNHYTQKSLSLSPGK
chain 2: EIVLTQSPATLSLSPGERATLSCRASQSVYSYLAWYQQKPGQAPRLLIYDASNRATGIPARFSGSGSGTDFTLTISSLEPEDFAVYYCQQRSNWPPFTFGPGTKVDIKGGGSGGGGQVQLVQSGAEVKKPGSSVKVSCKASGYTFTDQTIHWMRQAPGQGLEWIGYIYPRDDSPKYNENFKGKVTITADKSTSTAYMELSSLRSEDTAVYYCAIPDRSGYAWFIYWGQGTLVTVSSLGGGSGRTVAAPSVFIFPPSDEQLKSGTASVVCLLNNFYPREAKVQWKVDNALQSGNSQESVTEQDSKDSTYSLSSTLTLSKADYEKHKVYACEVTHQGLSSPVTKSFNRGEC
notes: GS linkers, isotype IgG1KO-YTE

How the values were obtained:
recombinant human IL23 [1] = target: T1, recombinant human IL23 (human, UniProt P29460 23-328); experiment: cell-based or functional assay
T1 sequence 1: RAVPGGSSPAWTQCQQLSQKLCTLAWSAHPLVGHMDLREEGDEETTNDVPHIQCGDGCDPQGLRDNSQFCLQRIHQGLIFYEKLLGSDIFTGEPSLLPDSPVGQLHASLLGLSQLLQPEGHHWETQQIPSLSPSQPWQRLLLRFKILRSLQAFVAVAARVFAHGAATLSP
T1 sequence 2: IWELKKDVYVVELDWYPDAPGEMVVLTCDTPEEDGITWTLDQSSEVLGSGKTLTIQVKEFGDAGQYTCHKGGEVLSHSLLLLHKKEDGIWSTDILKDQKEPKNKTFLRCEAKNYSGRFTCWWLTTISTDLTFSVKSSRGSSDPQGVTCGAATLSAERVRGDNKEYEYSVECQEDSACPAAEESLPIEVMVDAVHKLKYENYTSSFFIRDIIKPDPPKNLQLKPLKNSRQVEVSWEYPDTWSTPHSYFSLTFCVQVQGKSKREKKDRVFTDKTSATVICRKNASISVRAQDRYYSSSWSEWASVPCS

human TNF-alpha [2] = target: T2, human TNF-alpha (human, UniProt P01375 77-233); experiment: cell-based or functional assay
T2 sequence (P01375 77-233 limits assumed): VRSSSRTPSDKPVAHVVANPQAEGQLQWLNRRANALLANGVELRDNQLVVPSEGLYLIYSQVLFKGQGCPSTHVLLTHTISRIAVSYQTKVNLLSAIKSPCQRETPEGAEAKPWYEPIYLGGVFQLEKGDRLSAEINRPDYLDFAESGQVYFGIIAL

membrane bound TNF-alpha [3] = target: T3, membrane bound TNF-alpha; experiment: flow cytometry, mTNF-transfected Jurkat cells (geomean)
T3 construct: whole, on cells; also called mTNF; membrane expressed TNF-alpha
T3 sequence (P01375 whole entry): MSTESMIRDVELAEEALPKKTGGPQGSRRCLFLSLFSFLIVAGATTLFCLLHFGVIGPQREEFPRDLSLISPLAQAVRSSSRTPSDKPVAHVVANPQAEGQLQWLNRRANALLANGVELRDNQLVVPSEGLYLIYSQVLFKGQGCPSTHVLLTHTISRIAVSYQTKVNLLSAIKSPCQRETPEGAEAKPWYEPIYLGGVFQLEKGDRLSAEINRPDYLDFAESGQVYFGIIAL
Description: (§1) All reagents were prepared in flow cytometry staining buffer (BioLegend). Membrane expressed TNF-alpha transfected cell lines (Jurkat and CHO) and parental cell lines were harvested from tissue culture vessels, washed, counted and resuspended to 1×10̂6 cells/ml in flow cytometry staining buffer. One hundred microliters of the cell suspension was added to 96 well microtiter plates and placed on ice. Titrations of test compounds were prepared and 50 uL was added to the cells. After sixty minute incubation on ice, the cell+test compounds were washed and 50 uL of a secondary antibody (Jackson ImmunoResearch) was added. The samples were incubated in the dark, at 4 C, for 60 minutes, followed by washes. After a final wash the cells were resuspended in 60 uL of fixative (BD Bioscience). Median fluorescence was determined for each sample in a flow cytometer and plotted versus the concentration of the test sample. EC₅₀ values were calculated using the 4 Parameter Logistic enabled by the Excel add-in XLfit (Activity Base software, ID Business Solutions, Ltd.).

recombinant human IL23 [4] = target: T1, recombinant human IL23; experiment: cell-based or functional assay; remark: listed apart in the source
human TNF-alpha [5] = target: T2, human TNF-alpha; experiment: cell-based or functional assay; remark: listed apart in the source
cynomolgus TNF-alpha = cynomolgus TNF-alpha (cynomolgus, UniProt P79337 77-233, limits assumed); experiment: cell-based or functional assay
Sequence of cynomolgus TNF-alpha (P79337 77-233 limits assumed): as the sequence (P01375 77-233 limits assumed) above, with L37V, R44T, T72N, R138L counted along it

human TNF-alpha [6] = target: T2, human TNF-alpha; experiment: cell-based or functional assay; remark: listed apart in the source
recombinant human IL23 [7] = target: T1, recombinant human IL23; experiment: cell-based or functional assay; remark: listed apart in the source
[8] = target: T4, recombinant cynomolgus IL23 (cynomolgus); experiment: cell-based or functional assay
T4 chain 1: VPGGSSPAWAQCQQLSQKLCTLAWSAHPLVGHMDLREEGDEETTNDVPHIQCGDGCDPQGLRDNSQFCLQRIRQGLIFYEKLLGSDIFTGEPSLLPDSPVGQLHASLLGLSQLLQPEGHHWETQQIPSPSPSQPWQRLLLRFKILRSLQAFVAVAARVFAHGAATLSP
T4 chain 2: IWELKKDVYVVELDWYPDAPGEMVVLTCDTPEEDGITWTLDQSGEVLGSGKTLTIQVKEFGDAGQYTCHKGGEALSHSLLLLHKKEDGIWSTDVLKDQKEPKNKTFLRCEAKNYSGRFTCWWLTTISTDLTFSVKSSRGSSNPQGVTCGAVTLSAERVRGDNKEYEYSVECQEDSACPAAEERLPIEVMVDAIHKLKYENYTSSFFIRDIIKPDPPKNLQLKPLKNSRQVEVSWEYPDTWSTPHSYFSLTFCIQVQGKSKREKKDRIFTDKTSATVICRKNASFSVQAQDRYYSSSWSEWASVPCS

human TNF-alpha [9] = target: T2, human TNF-alpha; experiment: cell-based or functional assay; remark: listed apart in the source
recombinant human IL23 [10] = target: T1, recombinant human IL23; experiment: cell-based or functional assay; remark: listed apart in the source
membrane bound TNF-alpha [11] = target: T3, membrane bound TNF-alpha; experiment: flow cytometry, mTNF-transfected CHO cells (geomean)
Description: as §1

human TNF-alpha [12] = target: T2, human TNF-alpha; experiment: SPR (ProteOn XPR36), compound captured on goat anti-human IgG Fc, antigen injected
Description: (§2) SPR experiments were performed on a ProteOn XPR36 instrument (Bio Rad). A GLM chip was preconditioned with sequential injections of 60 sec of 0.5% SDS, 50 mM NaOH, and 100 mM HCl at a flow rate of 30 μl/min both vertical and horizontal directions. […] Goat-anti-human IgG (GAHA) Fc gamma (Invitrogen) at a concentration of 30 μg/ml in 10 mM, pH 5.0 sodium acetate buffer was immobilized to 8,000 resonance units on the activated GLM chip in 6 horizontal channels. The chip was finally deactivated with 1 M ethanolamine HCl in 6 horizontal channels. The prepared GAHA chip was rotated to vertical direction to capture test compounds, over 5 vertical channels and the last channel was used as a column reference. The captured chip was then rotated again to the horizontal direction for binding. […] The dissociation was allowed for 2 hour. […] The regenerated GAHA was ready for another binding cycle.

recombinant human IL23 [13] = target: T1, recombinant human IL23; experiment: cell-based or functional assay; remark: listed apart in the source
recombinant human IL23 [14] = target: T1, recombinant human IL23; experiment: cell-based or functional assay; remark: listed apart in the source
Linked human IL-23 = target: T5, Linked human IL-23 (human, UniProt P29460 23-328); experiment: SPR (ProteOn XPR36), compound captured on goat anti-human IgG Fc, linked human IL-23 injected at 0.625-10 nM
T5 construct: Printed as 'Linked human IL-23 (Boehringer Ingelheim Pharmaceuticals, Inc)' in the SPR method
T5 sequence 1: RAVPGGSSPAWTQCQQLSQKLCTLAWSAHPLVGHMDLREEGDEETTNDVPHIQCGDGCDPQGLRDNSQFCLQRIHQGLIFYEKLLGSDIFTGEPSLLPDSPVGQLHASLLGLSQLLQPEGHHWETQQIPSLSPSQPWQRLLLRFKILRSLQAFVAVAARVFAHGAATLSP
T5 sequence 2: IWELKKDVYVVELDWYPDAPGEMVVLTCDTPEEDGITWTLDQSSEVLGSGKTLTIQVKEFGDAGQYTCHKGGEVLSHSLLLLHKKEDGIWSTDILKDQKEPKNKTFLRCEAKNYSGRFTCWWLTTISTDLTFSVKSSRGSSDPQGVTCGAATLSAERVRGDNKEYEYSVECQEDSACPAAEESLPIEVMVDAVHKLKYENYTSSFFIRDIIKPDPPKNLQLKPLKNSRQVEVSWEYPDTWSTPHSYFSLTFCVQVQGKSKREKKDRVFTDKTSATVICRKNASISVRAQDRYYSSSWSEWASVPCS
Description: as §2

Binder	hIL23 pSTAT3 DB assay IC50 (recombinant human IL23 [1]) [pM]	hIL23 pSTAT3 DB assay IC90 (recombinant human IL23 [1]) [pM]	TNF-IL8 Whole Blood IC50 (human TNF-alpha [2]) [nM]	TNF-IL8 Whole Blood IC90 (human TNF-alpha [2]) [nM]	EC50 (membrane bound TNF-alpha [3]) [nM]	Dual Phospho DB-pSTAT3 IC50 (recombinant human IL23 [4]) [pM]	Dual Phospho DB-pSTAT3 IC90 (recombinant human IL23 [4]) [pM]	Dual Phospho Jurkat-pNf-Kb IC50 (human TNF-alpha [5]) [pM]	Dual Phospho Jurkat-pNf-Kb IC90 (human TNF-alpha [5]) [pM]	HeLa IL8 Hi-Hu-TNF IC50 (human TNF-alpha [6]) [nM]	HeLa IL8 Hi-Hu-TNF IC90 (human TNF-alpha [6]) [nM]	HeLa IL8 Lo-Hu-TNF IC50 (human TNF-alpha [6]) [nM]	HeLa IL8 Lo-Hu-TNF IC90 (human TNF-alpha [6]) [nM]	huIL23 MSA IC50 (recombinant human IL23 [7]) [nM]	huIL23 MSA IC90 (recombinant human IL23 [7]) [nM]	CynoIL23 MSA IC50 [8] [nM]	CynoIL23 MSA IC90 [8] [nM]	L929 TNF Cytotox IC50 (human TNF-alpha [9]) [nM]	L929 TNF Cytotox IC90 (human TNF-alpha [9]) [nM]	IL23A pSTAT3 (MG) IC50 (recombinant human IL23 [10]) [pM]	further results
B1	300	720	0.32	0.47	0.27	210	580	210	740	0.43	0.76	0.0099	0.043	0.21	2.2	0.12	0.8	0.0042	0.016	160	HeLa IL8 Cyno-TNF IC50 (cynomolgus TNF-alpha): 0.3 nM; HeLa IL8 Cyno-TNF IC90 (cynomolgus TNF-alpha): 0.97 nM; IL23A pSTAT3 (MG) IC90 (recombinant human IL23 [10]): 650 pM; EC50 (membrane bound TNF-alpha [11]): 0.77 nM
B2	300	700	0.34	0.61	0.2	230	770	260	340	0.32	0.53	0.0092	0.035	0.2	1.7	0.077	1.2	0.0041	0.017	140	Kd (human TNF-alpha [12]): 0.00411 nM; First test IC50, IL-23-dependent STAT3 activation (luciferase) (recombinant human IL23 [13]): 0.17 nM; GEOMEAN IC50, IL-23-dependent STAT3 activation (luciferase) (recombinant human IL23 [13]): 0.19 nM; GEOMEAN IC90, IL-23-dependent STAT3 activation (luciferase) (recombinant human IL23 [13]): 0.859 nM; IC50, IL-23-dependent STAT3 activation (DB-STAT3Luc10 luciferase) (recombinant human IL23 [14]): 0.212 nM; IC90, IL-23-dependent STAT3 activation (DB-STAT3Luc10 luciferase) (recombinant human IL23 [14]): 0.965 nM; IL23A pSTAT3 (MG) IC90 (recombinant human IL23 [10]): 830 pM; EC50 (membrane bound TNF-alpha [11]): 0.45 nM; Kd (Linked human IL-23): 0.007 nM
